According to patent US6656718B2, “Modified carboxypeptidase enzymes and their use” (Cancer Research Technology Limited, priority 2000, dated 2003):

Columns and labels:
[1] = test system: CM79; assay: CM79 binding to CPG2 variants by ELISA; set-up: species or system mice; details: clarified culture supernatants
Text: CM79 binding and CPG2 enzyme activity of all CPG2 variants were initially tested in clarified culture supernatants for CM79 binding.

[2] = CPG2 enzyme activity of variants; type: biochemical; details: clarified culture supernatants
Text: Thus for example, CPG2 activity may be tested by the ability of the enzyme to hydrolyse methotrexate (MTX). CPG2 hydrolysis of MTX results in a change in absorbance at 320 nm which may be measured by spectrophotometry. CPG2 catalytic activity in solid tissues can be assayed using an indirect HPLC method, measuring, for example, 2,4-diamino-N^10 methypteroic acid (DAMPA, a metabolite of MTX).
CM79 binding and CPG2 enzyme activity of all CPG2 variants were initially tested in clarified culture supernatants for CM79 binding. […] The variant V8 MFE-23::CPG2 indicated the role of the c-terminus in CM79 binding of CPG2 (FIG. 4, Table 1). CM79 bound to all the remaining CPG2 variants (Table 1).
Radiolabelled proteins were FPLC purified using a Superose 12 column (Pharmacia; PBS mobile phase 0.5 ml/min). Gamma radiation emitting fractions at 135 kDa elution point were tested for CPG2 enzyme activity. Protein concentrations were determined using Lowry reagent according to the manufacturer's protocol (BioRad).

- CM79 binding [1]: Yes
B1: wild-type CPG2: MFE-23::CPG2 fusion protein with wild-type CPG2: Region 1 KEYGVRD (SEQ ID NO:2), Region 2 GAGK (SEQ ID NO:4) (protein)
chain: ALAQKRDNVLFQAATDEQPAVIKTLEKLVNIETGTGDAEGIAAAGNFLEAELKNLGFTVTRSKSAGLVVGDNIVGKIKGRGGKNLLLMSHMDTVYLKGILAKAPFRVEGDKAYGPGIADDKGGNAVILHTLKLLKEYGVRDYGTITVLFNTDEEKGSFGSRDLIQEEAKLADYVLSFEPTSAGDEKLSLGTSGIAYVQVNITGKASHAGAAPELGVNALVEASDLVLRTMNIDDKAKNLRFNWTIAKAGNVSNIIPASATLNADVRYARNEDFDAAMKTLEERAQQKKLPEADVKVIVTRGRPAFNAGEGGKKLVDKAVAYYKEAGGTLGVEERTGGGTDAAYAALSGKPVIESLGLPGFGYHSDKAEYVDISAIPRRLYMAARLIMDLGAGK
- Enzyme Activity [2]: Yes
